The target of the assay is C9-tagged CCR5 (human) (UniProt P51681). Kind of assay: SPR. In general terms: Surface plasmon resonance follows binding to a sensor surface in real time, without labels.
UniProt P51681, sequence (P51681 whole entry): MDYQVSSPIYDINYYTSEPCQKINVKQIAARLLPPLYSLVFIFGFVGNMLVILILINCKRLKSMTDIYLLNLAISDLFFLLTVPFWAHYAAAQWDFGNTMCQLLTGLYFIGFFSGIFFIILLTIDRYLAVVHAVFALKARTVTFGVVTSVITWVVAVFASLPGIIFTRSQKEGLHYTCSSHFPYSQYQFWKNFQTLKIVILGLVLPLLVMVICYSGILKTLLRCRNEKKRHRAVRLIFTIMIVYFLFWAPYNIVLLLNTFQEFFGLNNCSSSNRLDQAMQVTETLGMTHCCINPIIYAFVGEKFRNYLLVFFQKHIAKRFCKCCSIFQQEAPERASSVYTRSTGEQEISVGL

One may read the Kd as the equilibrium constant for the complex coming apart. Read a high Kd as lower affinity. Substance “LukE (leukotoxin ED subunit E), His-tagged (natural protein)” showed a Kd of 39.6 nM.
